One molecule from US20130347134A1, “TRANSGENIC VON WILLEBRAND FACTOR ANIMALS AND USES THEREOF” (priority 2012, published 2013) can be followed below.

This experiment deals with murine platelets. In words: In vitro flow chamber, mouse platelets on recombinant VWF-A1, 800 s^-1. Format: cell-based. As to conditions: wall shear rate 800 s^−1. As for the experimental part:
The protein was subsequently used in a series of in vitro flow chamber assays to assess function. Washed human or murine platelets (5×10^7/ml) were infused through a parallel plate flow chamber containing glass cover slips coated with either human VWF-A1 or mouse VWF-A1 protein (100 μg/ml final concentration) at a shear rate of 800 s^−1. After 5 minutes of continuous flow, adherent platelets were quantified.
In the case of the latter, the murine A1 fragment was inserted into pET-11b (Stratagene) and purified as previously described (Miura et al., 2000).
Support for this hypothesis is provided by mutagenesis studies. By analyzing the data obtained from the crystal structure of the murine VWF-A1 domain, the inventors have identified several residues that may participate in interactions with GPIb α (FIG. 15C). Residue 1326 was initially chosen for study and was mutated to the corresponding amino acid at the identical location in its human counterpart (from Arg to His). Subsequently, the ability of murine and human platelets to interact with this mutant protein substrate was evaluated at a wall shear rate of 800 s^−1. Incorporation of a histidine for arginine at position 1326 in murine VWF-A1 reduced murine platelet adhesion by about 5-fold and increased translocation velocities of cells by about 7-fold as compared to the WT mouse protein (FIGS. 13 and 16). […]

B1: His-tag M VWF-A1: recombinant murine VWF-A1 with N-terminus His tag (protein)
chain: QEPGGLVAPPTDAPVSSTTPYVEDTPEPPLHNFYCSKLLDLVFLLDGSSMLSEAEFEVLKAFVVGMMERLHISQKRIRVAVVEYHDGSRAYLELKARKRPSELRRITSQIKYTGSQVASTSEVLKYTLFQIFGKIDRPEASHITLLLTASQEPPRMARNLVRYVQGLKKKKVIVIPVGIGPHASLKQIRLIEKQAPENKAFLLSGVDELEQRRDEIVSYLCDLAPEAPAPTQPP
Take B1: the “platelets that adhered to and translocated” value stood at 449±53 platelets/mm^2.
